Assay results from patent publication US20130171152A1 (published 2013).
Changes are numbered by the printed parent chain. Read-outs that look alike come from different tables or passages of the source.

B1: 4A5.37 (antibody, V domains shown)
VH: VKLEESGGGFVKPGGSLKISCAASGFTFRNYAMSWVRLSPEMRLEWVATISSAGGYIFYSDSVQGRFTISRDNAKNTLHLQMGSLRSGDTAMYYCARQGFGNYGDYYAMDYWGQGTTVTVSS
VL: DIELTQSPSSLAVSAGEKVTMSCKSSQSLLNSRTRKNQLAWYQQKTGQSPELLIYWASTRQSGVPDRFTGSGSGTDFTLTISSVQAEDLAVYYCQQSYNLLTFGPGTKLEIKR
B2: 4H11.2.5 (antibody, V domains shown)
VH: B1 VH with E4Q, I19V, R29S, N30S
VL: B1 VL with T46P, I111V

Legend:
[1] = biological target: Homo sapiens MUC16 (GenBank NP-078966)
[2] = biological target: Homo sapiens MUC16 (GenBank NP-078966); remark: listed apart in the source

Binder	Kd [1] [nM]	Kd [2] [nM]
B1	7.3	
B2		6.8
